In patent publication US20040265325A1:
Values joined by “and” are separate entries in the source; they are usually repeats but may differ in a detail not shown here. Equal values may be shown once.

Biological target: CD8+ T cells (T cell receptors) of CMV-seropositive human donors
Test: flow cytometry, tetramer staining of CD8+ cells; background that was subtracted

“HIV pol464-472 control tetramer (from UniProt P61769 21-119) (peptide-MHC)” was tested, and the CD8+ binding percentages to control tetramer was 0.07% and 0.1%.
